Laboratory results: patent US20120219545A1

Assays:
[1] = target: serum IgE of subject 43 (human); test: ELISA inhibition; serum of subject 43 preincubated with rSCP (printed 25 mg/mL), IgE binding to plate-coated boiled shrimp extract
[2] = target: IgE of the serum pool of subjects 14, 47 and 48 (human); test: cell-based or functional assay
[3] = target: serum IgE of subject 2 (human); test: ELISA inhibition; serum of subject 2 preincubated with rSCP, IgE binding to plate-coated boiled shrimp extract

maximal inhibition [1]: 79%
mediator release (beta-hexosaminidase) from RBL-2H3 cells (% of total possible release) [2]: 30
mediator release (beta-hexosaminidase) from RBL-2H3 cells ([2]; scale: % of the release obtained with BS extract): 65
maximal inhibition [3]: 48%
B1: recombinant shrimp sarcoplasmic calcium-binding protein (rSCP) (protein, not shown: small tags and cut ends)
chain: MAYSWDNRVKYVVRYMYDIDNNGFLDKNDFECLAVRNTLIEGRGEFSADAYANNQKIMRNLWNEIAELADFNKDGEVTVDEFKQAVQKHCQGKKYGDFPGAFKVFIANQFKAIDVNGDGKVGLDEYRLDCITRSAFAEVKEIDDAYNKLTTEDDRKAGGLTLERYQDLYAQFISNPDESCSACYLFGPLKVVQ
